This note sets out measurements from patent publication US20220064325A1 (ALLIGATOR BIOSCIENCE, published 2022).

The target in test [1] is T1, human EpCAM expressed on cells (human, UniProt P16422 24-314).
T1 construct: whole, on cells; In the debris and exosome assays EpCAM stands on heat-shocked tumour cell debris or on exosomes; also called EpCAM on CHO-EpCAM, JEG, JAR, HT29, BxPC3, MCF7 and MB49-hEpCAM-OVA cells, their debris or exosomes
T1 sequence (looked up): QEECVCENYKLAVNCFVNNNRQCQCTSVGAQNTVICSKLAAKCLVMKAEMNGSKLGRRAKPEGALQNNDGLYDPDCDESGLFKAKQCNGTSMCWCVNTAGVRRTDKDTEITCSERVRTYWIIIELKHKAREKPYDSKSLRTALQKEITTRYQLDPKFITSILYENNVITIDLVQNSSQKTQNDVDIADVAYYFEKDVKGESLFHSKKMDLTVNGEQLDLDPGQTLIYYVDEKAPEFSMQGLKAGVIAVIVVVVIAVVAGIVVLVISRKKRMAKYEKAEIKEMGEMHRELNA
Briefly: flow cytometry, titration of biotinylated antibody on EpCAM-transfected CHO cells, detection with fluorochrome-conjugated streptavidin. An excerpt:
FIG. 3. […] Binding of biotinylated antibodies was detected by flow cytometry using fluorochrome-conjugated streptavidin. Results are pooled from two replicates in one representative experiment of two.
The human EpCAM gene was cloned into pcDNA3.1, and the vector was subsequently stably transfected into CHO cells. Control CHO cells were stably transfected with and empty pcDNA3.1 vector. […] Binding of biotinylated antibodies was detected with fluorochrome-conjugated streptavidin and analysed using flow cytometry.

Test [2] concerns the target T2, human CD40 expressed on cells (human, UniProt P25942 21-277).
T2 construct: whole, on cells; also called CD40 on primary human B cells, monocytes, monocyte-derived DCs, Raji cells and hCD40tg mouse DCs
As to the kind of experiment: flow cytometry, titration of biotinylated antibody on human PBMC gated with CD19, CD14, CD3 and CD56, detection with fluorochrome-conjugated streptavidin. From the text: FIG. 5. […] Binding of biotinylated antibodies to different cell populations was detected by flow cytometry using fluorochrome-conjugated streptavidin. Results are pooled from three donors in one representative experiment of two.
Binding of biotinylated antibodies was detected with fluorochrome-conjugated streptavidin and analysed using flow cytometry.

Test [3] concerns the target T3, dimeric antigen EpCAM-Fc (Sino hEpCAM_Fc #10694-H02H) (human, UniProt P16422 24-265).
T3 construct: not shown: Fc part
T3 sequence (looked up): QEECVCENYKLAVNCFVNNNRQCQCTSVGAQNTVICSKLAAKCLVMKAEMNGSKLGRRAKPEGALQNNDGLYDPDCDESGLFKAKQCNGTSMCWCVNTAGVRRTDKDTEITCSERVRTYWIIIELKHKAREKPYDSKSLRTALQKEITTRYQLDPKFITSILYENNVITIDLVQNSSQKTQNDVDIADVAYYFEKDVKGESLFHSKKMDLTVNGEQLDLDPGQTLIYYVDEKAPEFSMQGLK
Briefly: BLI (Octet RED96), Assay 1: bsAb on FAB2G sensors, dimeric EpCAM-Fc in solution, 1:1 fit. The protocol: (§1) Kinetic measurements were performed using the Octet RED96 platform (ForteBlo).
(§2) BsAb at 1.0 or 1.5 ug/ml where coupled to anti-human Fab-CH1 2nd generation (FAB2G) biosensors (Part no #18-5125 (tray)). Antigens were serially diluted % in 1× Kinetic buffer (ForteBio) to 100 nM, 50 nM, 25 nM, 12.5 nM, 6.25 nM, 3.125 nM, 1.56 nM or 0 nM. The association was followed for 300 seconds and the dissociation in 1× Kinetic buffer for 300 seconds. Sensor tips were regenerated using 10 mM glycine, pH 1.5. Data generated were referenced by subtracting a parallel buffer blank, the baseline was aligned with the y-axis, inter-step correlation by alignment against dissociation was performed and the data were smoothed by a Savitzky-Golay filter in the data analysis software (v.9.0.0.14). The processed data were fitted using a 1:1 Langmuir binding model with X2 as a measurement of fitting accuracy.
For orientation: Biolayer interferometry detects binding as a change in optical thickness at a sensor tip.

Test [4] concerns the target T4, hEpCAM (R&D Systems #9277-EP), monomeric antigen EpCAM-his (human, UniProt P16422 24-265).
T4 construct: Bought reagent; also called human EpCAM; not shown: His tag
T4 sequence (looked up): T3 sequence (looked up)
As to the kind of experiment: BLI (Octet RED96), Assay 2: bsAb on FAB2G sensors, monomeric EpCAM-his in solution, 1:1 fit. The protocol: as §1, §2

In test [5] the target is T4, hEpCAM (R&D Systems #9277-EP), …. As to the kind of experiment: Mono ELISA (top frame): plate coated with 0.5 µg/mL hEpCAM, detection with HRP-labelled goat anti-human kappa light chain, luminescence.
Test [6] deals with T3, dimeric antigen EpCAM-Fc (Sino …). As to the kind of experiment: BLI (Octet RED96), Assay 3: hEpCAM_Fc coupled to AR2G sensors, bsAb in solution, 1:1 fit. The procedure:
as §1
Antigen was coupled to Amine reactive Second generation sensors (Dip and Read Amine reactive Second-Generation (AR2G) Biosensors (Part no #18-5092 (tray)) at antigen concentrations of 0.4, 1.5, 0.25 or 0.5 μg/mL. BsAb (serially diluted % in 1× Kinetic buffer (ForteBio) with start concentrations of 20, 15, 10 or 25 nM) were analysed for binding to antigen-coupled sensors. The association was followed for 300 seconds and the dissociation in 1× Kinetic buffer for 300 seconds. Sensor tips were regenerated using 10 mM glycine, pH 2.2. Data generated were referenced by subtracting a parallel buffer blank, the baseline was aligned with the y-axis, inter-step correlation by alignment against dissociation was performed and the data were smoothed by a Savitzky-Golay filter in the data analysis software (v.9.0.0.14). The processed data were fitted using a 1:1 Langmuir binding model with X2 as a measurement of fitting accuracy.

T2 sequence (P25942 21-277): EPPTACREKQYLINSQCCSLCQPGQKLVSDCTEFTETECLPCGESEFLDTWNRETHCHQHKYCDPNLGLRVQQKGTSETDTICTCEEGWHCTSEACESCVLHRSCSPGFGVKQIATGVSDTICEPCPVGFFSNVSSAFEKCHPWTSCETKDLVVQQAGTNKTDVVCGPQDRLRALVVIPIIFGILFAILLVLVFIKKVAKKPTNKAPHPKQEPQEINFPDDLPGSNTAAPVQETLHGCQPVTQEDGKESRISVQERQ

B1: 1132.m2 (antibody, V domains shown)
VH: EVQLLESGGGLVQPGGSLRLSCAASGFTFSSYAMSWVRQAPGKGLEWVSGIGSYGGGTYYADSVKGRFTISRDNSKNTLYLQMNSLRAEDTAVYYCARYVNFGMDYWGQGTLVTVSS
VL: DIQMTQSPSSLSASVGDRVTITCRASQSISSYLNWYQQKPGKAPKLLIYAASSLQSGVPSRFSGSGSGTDFTLTISSLQPEDFATYYCQQYGRNPPTFGQGTKLEIK
notes: Full chains are not tied to this name; also called LALA-mutated agonistic monoclonal CD40 antibody
Regarding B1, the binding result in test [1] is on record as “no binding (tested: about 300 nM)”; in test [2], “binds”.

B2: 1132-3188.M (bispecific antibody, V domains shown)
VH 1: B1 VH
VL 1: B1 VL
VH 2: EVQLVQSGPGLVQPGGSVRISCAASGYTFTNYGMNWVKQAPGKGLEWMGWINTYTGESTYADSFKGRFTFSLDTSASAAYLQINSLRAEDTAVYYCARFAIKGDYWGQGTLLTVSS
VL 2: DIQMTQSPSSLSASVGDRVTITCRSTKSLLHSNGITYLYWYQQKPGKAPKLLIYQMSNLASGVPSRFSSSGSGTDFTLTISSLQPEDFATYYCAQNLEIPRTFGQGTKVELK
notes: also called CD40-EpCAM bispecific antibody in the Morrison format; 3188 = 4D5MOCB = BM1
Turning to B2, in test [3], the Kd (in general, the concentration at which binding is half-saturated) is under 0.001 nM; the koff (as a rule, the first-order rate constant of dissociation) was under 1e-07 s⁻¹; the kon (usually a measure of how fast the partners come together) stood at 300000 M⁻¹ s⁻¹. For the same molecule, in test [4], the dissociation constant (Kd) stood at 30 nM, the off-rate constant (koff) came to 0.004 s⁻¹ and the on-rate (kon) amounted to 100000 M⁻¹ s⁻¹. Moreover, in test [5], the half-maximal effective concentration (EC50 (read off the curve)) (in general, the concentration giving half of the maximal effect) is about 0.4 nM.

B3: 1132-3174.M (bispecific antibody, V domains shown)
VH 1: B1 VH
VL 1: B1 VL
VH 2: EVQLLEQSGAELVRPGTSVKISCKASGYAFTNYWLGWVKQRPGHGLEWIGDIFPGSGNIHYNEKFKGKATLTADKSSSTAYMQLSSLTFEDSAVYFCARLRNWDEPMDYWGQGTTVTVSS
VL 2: ELVMTQSPSSLTVTAGEKVTMSCKSSQSLLNSGNQKNYLTWYQQKPGQPPKLLIYWASTRESGVPDRFTGSGSGTDFTLTISSVQAEDLAVYYCQNDYSYPLTFGAGTKLEIK
notes: also called CD40-EpCAM bispecific antibody in the Morrison format
Consider B3, for which the Kd is 0.5 nM in test [3], 10 nM in test [6] and 500 nM in test [4]. In addition, the figures for the off-rate constant (koff) in test [3], in test [6] and in test [4] were 8e-05 s⁻¹, 0.002 s⁻¹ and 0.01 s⁻¹, respectively. For the same molecule, the on-rate constant (kon) in test [3] came to 200000 M⁻¹ s⁻¹; in test [6], 200000 M⁻¹ s⁻¹; in test [4], 20000 M⁻¹ s⁻¹.

B4: 1132-005025.M (bispecific antibody)
VH: B1 VH
VL: B1 VL
scFv: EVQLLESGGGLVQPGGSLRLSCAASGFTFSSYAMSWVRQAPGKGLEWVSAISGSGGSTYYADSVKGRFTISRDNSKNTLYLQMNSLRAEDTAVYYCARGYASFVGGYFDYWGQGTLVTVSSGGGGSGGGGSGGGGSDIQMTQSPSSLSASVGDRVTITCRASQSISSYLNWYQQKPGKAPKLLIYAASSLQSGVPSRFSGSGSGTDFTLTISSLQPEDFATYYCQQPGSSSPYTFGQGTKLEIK
notes: as for B3
In test [3], B4 came in with a Kd of 4 nM, an off-rate constant (koff) of 0.001 s⁻¹ and a kon of 300000 M⁻¹ s⁻¹. In test [4], this molecule displayed a dissociation constant (Kd) of 300 nM, a koff of 0.01 s⁻¹ and an on-rate constant (kon) of 30000 M⁻¹ s⁻¹. Besides, in test [5], the “EC50 (read off the curve)” value was about 0.5 nM.

B5: 1132-005038.M (bispecific antibody)
VH: B1 VH
VL: B1 VL
scFv: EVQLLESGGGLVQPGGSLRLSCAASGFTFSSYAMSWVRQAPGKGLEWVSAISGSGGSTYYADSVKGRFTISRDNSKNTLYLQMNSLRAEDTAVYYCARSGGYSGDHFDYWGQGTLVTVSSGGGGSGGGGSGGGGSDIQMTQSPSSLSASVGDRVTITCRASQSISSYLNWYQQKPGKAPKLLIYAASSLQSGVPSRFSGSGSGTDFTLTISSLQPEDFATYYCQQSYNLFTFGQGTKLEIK
notes: as for B3
Regarding B5, in test [3], the Kd turned out to be 6 nM, the koff worked out at 0.002 s⁻¹ and the on-rate constant (kon) was found to be 300000 M⁻¹ s⁻¹. In test [4], this molecule returned a Kd of 1000 nM, a dissociation rate constant (koff) of 0.01 s⁻¹ and an on-rate (kon) of 8000 M⁻¹ s⁻¹. Besides, the “EC50 (read off the curve)” value in test [5] is about 1 nM.
